Measurements reported in IntAct's records for PubMed 21556048.

Target: ep300_human EP300 (UniProt Q09472)
Sequence (Q09472 whole entry): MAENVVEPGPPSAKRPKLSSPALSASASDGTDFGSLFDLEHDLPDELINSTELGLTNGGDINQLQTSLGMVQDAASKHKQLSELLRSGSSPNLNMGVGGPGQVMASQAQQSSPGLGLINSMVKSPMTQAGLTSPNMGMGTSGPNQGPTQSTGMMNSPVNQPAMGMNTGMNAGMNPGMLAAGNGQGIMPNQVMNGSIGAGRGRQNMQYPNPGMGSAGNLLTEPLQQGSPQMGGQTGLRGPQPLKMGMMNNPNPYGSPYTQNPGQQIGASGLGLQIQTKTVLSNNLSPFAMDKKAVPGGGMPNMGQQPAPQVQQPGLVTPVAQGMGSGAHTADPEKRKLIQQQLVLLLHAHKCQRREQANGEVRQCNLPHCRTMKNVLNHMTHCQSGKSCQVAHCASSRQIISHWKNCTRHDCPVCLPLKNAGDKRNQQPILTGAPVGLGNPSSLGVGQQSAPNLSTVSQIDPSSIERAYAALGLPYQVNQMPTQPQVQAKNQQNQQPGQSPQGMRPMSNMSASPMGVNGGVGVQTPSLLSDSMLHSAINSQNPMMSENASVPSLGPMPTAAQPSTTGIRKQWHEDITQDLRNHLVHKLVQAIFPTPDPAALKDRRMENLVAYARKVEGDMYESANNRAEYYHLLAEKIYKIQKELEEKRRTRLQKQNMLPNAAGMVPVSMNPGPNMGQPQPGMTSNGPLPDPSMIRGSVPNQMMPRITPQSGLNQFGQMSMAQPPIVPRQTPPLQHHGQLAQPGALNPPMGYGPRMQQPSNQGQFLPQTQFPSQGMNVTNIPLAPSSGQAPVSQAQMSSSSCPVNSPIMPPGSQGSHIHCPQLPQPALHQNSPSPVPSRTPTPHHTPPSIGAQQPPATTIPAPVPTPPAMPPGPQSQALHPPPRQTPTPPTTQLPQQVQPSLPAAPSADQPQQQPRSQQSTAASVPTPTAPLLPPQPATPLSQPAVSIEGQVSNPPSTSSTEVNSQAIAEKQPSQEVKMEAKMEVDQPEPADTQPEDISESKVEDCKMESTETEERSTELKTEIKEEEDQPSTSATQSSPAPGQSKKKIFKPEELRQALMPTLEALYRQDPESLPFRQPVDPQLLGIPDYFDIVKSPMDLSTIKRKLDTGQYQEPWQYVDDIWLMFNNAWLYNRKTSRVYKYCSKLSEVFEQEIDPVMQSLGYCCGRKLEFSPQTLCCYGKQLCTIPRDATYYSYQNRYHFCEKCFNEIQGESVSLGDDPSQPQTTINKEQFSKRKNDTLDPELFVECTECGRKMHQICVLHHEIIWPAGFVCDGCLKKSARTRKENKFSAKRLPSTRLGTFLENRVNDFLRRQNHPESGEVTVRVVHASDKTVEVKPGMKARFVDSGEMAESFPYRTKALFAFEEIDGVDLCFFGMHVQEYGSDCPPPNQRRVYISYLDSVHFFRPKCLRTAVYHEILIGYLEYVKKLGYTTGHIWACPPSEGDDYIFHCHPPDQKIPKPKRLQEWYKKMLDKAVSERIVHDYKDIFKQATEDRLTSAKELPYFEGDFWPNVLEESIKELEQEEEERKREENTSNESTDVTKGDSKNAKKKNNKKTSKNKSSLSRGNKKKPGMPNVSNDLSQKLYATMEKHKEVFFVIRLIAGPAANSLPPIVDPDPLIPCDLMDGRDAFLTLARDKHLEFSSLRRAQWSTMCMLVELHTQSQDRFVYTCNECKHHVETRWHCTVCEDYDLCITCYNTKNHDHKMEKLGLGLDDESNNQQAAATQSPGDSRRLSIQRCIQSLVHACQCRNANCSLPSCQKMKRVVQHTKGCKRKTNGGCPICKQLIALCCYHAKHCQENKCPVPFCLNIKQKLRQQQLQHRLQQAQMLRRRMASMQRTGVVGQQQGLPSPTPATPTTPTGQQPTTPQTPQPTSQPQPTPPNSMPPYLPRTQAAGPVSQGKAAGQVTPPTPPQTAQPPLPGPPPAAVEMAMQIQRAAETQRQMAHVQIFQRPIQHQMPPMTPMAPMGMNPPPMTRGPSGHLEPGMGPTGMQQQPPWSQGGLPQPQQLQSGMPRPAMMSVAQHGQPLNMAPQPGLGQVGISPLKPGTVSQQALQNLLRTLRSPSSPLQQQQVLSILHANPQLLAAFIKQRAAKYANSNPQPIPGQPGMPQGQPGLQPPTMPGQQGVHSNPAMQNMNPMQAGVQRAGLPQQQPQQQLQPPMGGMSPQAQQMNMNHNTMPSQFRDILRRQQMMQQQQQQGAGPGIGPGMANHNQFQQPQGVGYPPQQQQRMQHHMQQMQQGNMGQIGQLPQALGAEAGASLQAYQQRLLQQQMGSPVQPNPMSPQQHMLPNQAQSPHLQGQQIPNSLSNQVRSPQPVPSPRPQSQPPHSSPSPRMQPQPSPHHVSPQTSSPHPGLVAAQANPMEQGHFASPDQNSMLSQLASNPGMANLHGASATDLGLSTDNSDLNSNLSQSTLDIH

Sequence of Myocyte-specific enhancer factor 2C (Homo sapiens), Q06413 T80A (Q06413 whole entry T80A): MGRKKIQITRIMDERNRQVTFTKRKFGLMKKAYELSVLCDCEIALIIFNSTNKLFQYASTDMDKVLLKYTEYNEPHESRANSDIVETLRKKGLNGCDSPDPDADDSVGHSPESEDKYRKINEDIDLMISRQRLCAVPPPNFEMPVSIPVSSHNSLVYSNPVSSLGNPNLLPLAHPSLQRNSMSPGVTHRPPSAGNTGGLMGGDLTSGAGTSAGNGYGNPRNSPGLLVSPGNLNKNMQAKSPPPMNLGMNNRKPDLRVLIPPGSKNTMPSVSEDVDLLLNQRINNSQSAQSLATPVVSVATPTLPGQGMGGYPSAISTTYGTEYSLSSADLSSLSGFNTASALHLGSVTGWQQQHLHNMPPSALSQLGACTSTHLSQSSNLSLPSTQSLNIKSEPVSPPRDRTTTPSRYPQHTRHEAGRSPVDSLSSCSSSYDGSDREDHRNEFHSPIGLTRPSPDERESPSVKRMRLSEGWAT

Substance: Myocyte-specific enhancer factor 2C (Homo sapiens), Q06413 T80A
- effect of a mutation on the interaction: decreasing interaction
